# Source: patent publication US20260034234A1 (AGENSYS, published 2026)
# What was measured:
# [1] = target: T1, Rat 191P4D12 (on PC3 cells) (rat, UniProt D3ZET1 31-509); experiment: FACS saturation binding on PC3-rat-191P4D12 cells
# T1 construct: whole, on cells; also called PC3-rat-191P4D12; Rat ortholog
# T1 sequence: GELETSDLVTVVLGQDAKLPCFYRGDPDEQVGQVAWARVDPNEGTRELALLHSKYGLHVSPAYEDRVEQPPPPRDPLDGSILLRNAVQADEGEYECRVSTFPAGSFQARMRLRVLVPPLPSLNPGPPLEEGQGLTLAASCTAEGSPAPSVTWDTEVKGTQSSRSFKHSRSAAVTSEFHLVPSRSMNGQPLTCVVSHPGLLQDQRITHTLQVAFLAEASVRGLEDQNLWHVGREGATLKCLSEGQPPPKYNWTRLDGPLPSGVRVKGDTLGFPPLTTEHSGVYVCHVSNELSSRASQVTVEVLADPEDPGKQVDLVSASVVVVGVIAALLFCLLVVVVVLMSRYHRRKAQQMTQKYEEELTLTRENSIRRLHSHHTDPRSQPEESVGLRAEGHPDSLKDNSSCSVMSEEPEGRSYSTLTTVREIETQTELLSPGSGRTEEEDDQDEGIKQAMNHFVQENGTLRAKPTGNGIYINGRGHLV
# Procedure: (§1) Ha22-2(2,4)6.1vcMMAE was tested for its binding affinity to 191P4D12 expressed on the surface of PC3-human-191P4D12, PC3-Cynomolgus-191P4D12, and PC3-rat-191P4D12 cells respectively. Briefly, eleven (11) dilutions of Ha22-2(2,4)6.1vcMMAE were incubated with each of the cell types (50,000 cells per well) overnight at 4° C. at a final concentration of 160 nM to 0.011 nM. At the end of the incubation, cells are washed and incubated with anti-hIgG-PE detection antibody for 45 min at 4° C. After washing the unbound detection antibodies, the cells are analyzed by FACS. MFI values were entered into Graphpad Prisim software and analyzed using the one site binding (hyperbola) equation of Y=Bmax*X/(Kd+X) to generate Ha22-2(2,4)6.1vcMMAE saturation curves shown also in FIGS. 6-8 respectively. Bmax is the MFI value at maximal binding of Ha22-2(2,4)6.1vcMMAE to 191P4D12; Kd is the Ha22-2(2,4)6.1vcMMAE binding affinity which is the concentration of Ha22-2(2,4)6.1vcMMAE required to reach half-maximal binding.
# [2] = target: T2, 191P4D12 (human, wild type, on cells) (human, UniProt Q96NY8 32-510); experiment: FACS saturation binding on PC3-human-191P4D12 cells
# T2 construct: 510 amino acid ORF expressed on PC3, RAT/Rat1(E) cells and present in cancer cell lines and tumor specimens; also called human 191P4D12; wild-type 191P4D12
# T2 sequence: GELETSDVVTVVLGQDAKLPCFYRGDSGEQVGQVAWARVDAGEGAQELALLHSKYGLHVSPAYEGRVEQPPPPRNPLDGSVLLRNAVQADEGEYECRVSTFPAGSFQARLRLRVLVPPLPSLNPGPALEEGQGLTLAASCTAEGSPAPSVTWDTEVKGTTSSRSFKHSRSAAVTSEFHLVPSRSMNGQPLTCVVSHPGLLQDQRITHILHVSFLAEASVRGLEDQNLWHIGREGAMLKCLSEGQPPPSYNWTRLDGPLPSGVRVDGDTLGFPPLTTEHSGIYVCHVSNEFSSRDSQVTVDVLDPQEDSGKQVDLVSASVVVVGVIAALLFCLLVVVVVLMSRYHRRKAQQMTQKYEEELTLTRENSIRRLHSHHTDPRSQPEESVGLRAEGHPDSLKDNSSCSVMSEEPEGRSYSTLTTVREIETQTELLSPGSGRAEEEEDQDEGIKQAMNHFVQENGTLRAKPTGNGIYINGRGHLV
# Procedure: as §1
# [3] = target: T3, Cynomolgus 191P4D12 (on PC3 cells) (cynomolgus monkey, UniProt A0A2K5WES1 32-510); experiment: FACS saturation binding on PC3-Cynomolgus-191P4D12 cells
# T3 construct: also called PC3-Cynomolgus-191P4D12; Cyno ortholog
# T3 sequence: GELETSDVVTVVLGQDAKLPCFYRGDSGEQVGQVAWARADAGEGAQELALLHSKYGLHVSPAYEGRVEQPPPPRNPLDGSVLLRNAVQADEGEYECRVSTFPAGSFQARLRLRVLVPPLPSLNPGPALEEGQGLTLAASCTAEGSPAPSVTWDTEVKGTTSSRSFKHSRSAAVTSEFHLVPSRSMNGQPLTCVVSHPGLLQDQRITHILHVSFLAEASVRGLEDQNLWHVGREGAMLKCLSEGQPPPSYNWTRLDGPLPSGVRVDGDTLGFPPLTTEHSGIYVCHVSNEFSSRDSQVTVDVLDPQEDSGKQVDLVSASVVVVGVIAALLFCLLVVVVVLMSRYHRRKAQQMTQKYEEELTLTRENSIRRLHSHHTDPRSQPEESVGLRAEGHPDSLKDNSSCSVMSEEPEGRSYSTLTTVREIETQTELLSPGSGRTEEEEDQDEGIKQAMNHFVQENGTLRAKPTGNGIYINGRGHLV
# Procedure: as §1
# [4] = target: T4, purified recombinant 191P4D12 (ECD amino acids 1-348) (human, UniProt Q96NY8 32-348); experiment: SPR (Biacore), ADC captured by anti-human Fc, 191P4D12 ECD as analyte
# T4 construct: Range as printed
# T4 sequence: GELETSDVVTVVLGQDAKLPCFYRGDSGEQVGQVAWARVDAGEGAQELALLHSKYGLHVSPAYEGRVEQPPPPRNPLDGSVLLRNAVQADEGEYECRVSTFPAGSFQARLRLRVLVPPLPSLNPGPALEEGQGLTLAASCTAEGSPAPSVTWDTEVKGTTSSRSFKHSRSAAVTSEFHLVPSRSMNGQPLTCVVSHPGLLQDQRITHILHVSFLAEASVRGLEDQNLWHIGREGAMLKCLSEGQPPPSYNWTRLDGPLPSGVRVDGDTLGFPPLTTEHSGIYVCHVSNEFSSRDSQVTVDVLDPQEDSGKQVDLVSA
# Procedure: The affinity of Ha22-2(2,4)6.1 MAb and Ha22-2(2,4)6.1vcMMAE to purified recombinant 191P4D12 (ECD amino acids 1-348) was performed by Surface Plasmon Resonance (SPR) (BIAcore). Briefly, goat-anti-human Fcγ polyclonal Abs (Jackson Immuno Research Labs, Inc.) were covalently immobilized on the surface of a CM5 sensor chip (Biacore). Purified Ha22-2(2,4)6.1 MAb or Ha22-2(2,4)6.1vcMMAE were then captured on the surface of said chip. On average, approximately 300 RUs of test Ha22-2(2,4)6.1 MAb or Ha22-2(2,4)6.1vcMMAE was captured in every cycle. Subsequently, a series of five (5) to six (6) dilutions of recombinant 191P4D12 (ECD amino acids 1-348) ranging from 1 nM to 100 nM was injected over such surface to generate binding curves (sensograms) that were processed and globally fit to a 1:1 interaction model using BIAevaluation 3.2 and CLAMP software (Myszka and Morton, 1998) (FIG. 22). Table V summarizes association and dissociation rate constants as well as affinities of Ha22-2(2,4)6.1 MAb and Ha22-2(2,4)6.1 vcMMAE to recombinant 191P4D12 (ECD amino acids 1-348).
binder,measurement,setting,value
"Ha22-2(2,4)6.1vcMMAE (antibody, human IgG1, kappa, V domains shown, vcMMAE (Val-Cit linker, MMAE) on cysteine thiols after partial TCEP reduction, positions not given; p about 3.8 drugs per antibody, also called Ha22-2(2,4)6.1ADC) VH: EVQLVESGGGLVQPGGSLRLSCAASGFTFSSYNMNWVRQAPGKGLEWVSYISSSSSTIYYADSVKGRFTISRDNAKNSLSLQMNSLRDEDTAVYYCARAYYYGMDVWGQGTTVTVSS VL: DIQMTQSPSSVSASVGDRVTITCRASQGISGWLAWYQQKPGKAPKFLIYAASTLQSGVPSRFSGSGSGTDFTLTISSLQPEDFATYYCQQANSFPPTFGGGTKVEIKR",Kd,[1],1.6 nM
same,Kd,[2],0.69 nM
same,Kd,[3],0.34 nM
same,Kd,[4],11 nM
same,koff,[4],0.0052 s⁻¹
same,kon,[4],450000 M⁻¹ s⁻¹
